# Measured values as given in the supplement of paper PMC9170038.
# Tested on: MS2 coat protein
# Assay: apparent KD of MS2 coat protein; designed switch direction (-1 OFF switch, 1 ON switch): -1; higher = weaker reporter binding
# How it was run: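 Designed RNA switches with common flanks were made on Illumina chips by stalled E. coli RNA polymerase. Titration with SNAP-549-labelled MS2 coat protein doubled from 0.7 or 1.5 nM up to 3 µM. Apparent KD is each design's median over clusters after curve-fitting normalised fluorescence.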
# [1] = Eterna round: R95, input ligand: FMN 200 uM
# [2] = Eterna round: R95, input ligand: microRNA oligo, concentration not stated
# [3] = Eterna round: R95, input ligand: none
sequence,measurement,setting,value
"GAUCUACAUGAGGAUCACCCAUGUGAGGAUAUUUAGACCAACGCUCUAGCUGUUGAUGGAAGAAGGCACCACCG [Eternabot (L2) Solution 56] (Eterna round: R97, puzzle: Exclusion 1)",apparent KD of MS2 coat protein,input ligand: FMN 200 uM,25.4 nM
same,apparent KD of MS2 coat protein,input ligand: none,26.2 nM
"GAUCUAGGUGUCAGGAUAUGUAGCUAGGUAAGCAGACAGAAGGGACAUGAGGAUCACCCAUGUCGCAAAUUAAU [Gezadi] (Eterna round: R97, puzzle: Brourd's mod of Exclusion 4)",apparent KD of MS2 coat protein,input ligand: FMN 200 uM,86 nM
same,apparent KD of MS2 coat protein,input ligand: none,18.5 nM
GAUCUGACAGGAUAUACAUGAGGAUCACCCAUGUGCGUGCUAGCGAAAGCUAGCGCAGGUAGAAGGGUCAGAUC [Ex3 dot plot directed v4] (puzzle: Exclusion 3),apparent KD of MS2 coat protein,[1],14.4 nM
same,apparent KD of MS2 coat protein,[2],11.3 nM
same,apparent KD of MS2 coat protein,[3],12.9 nM
GAUCUGAUAGGAUAUACAUGAGGAUCACCCAUGUGCGAGCUAGCGAAAGCUAGCUCAGGUAGAAGGGUCAGAUC [Ex3 dot plot directed v2] (puzzle: Exclusion 3),apparent KD of MS2 coat protein,[2],11.7 nM
"GAUCUGCAGCAGGAUAUGCUCUCGGAAACGAGCGCAGAAGGGCUGACAUGAGGAUCACCCAUGUAAUAAUGGCC [EX6 A.24] (Eterna round: R97, puzzle: Exclusion 6)",apparent KD of MS2 coat protein,input ligand: FMN 200 uM,89.7 nM
same,apparent KD of MS2 coat protein,input ligand: none,44.2 nM
GAUGAGGUAGGAUAUACGAGAAGAUAGGGUAGAGAGAGAACACAUGAGGAUCACCCAUGUAGAAGGACCAGUAG [Mat - Exclusion 2 - Mod of my Tesla design - D74] (puzzle: Exclusion 2),apparent KD of MS2 coat protein,[1],48.9 nM
same,apparent KD of MS2 coat protein,[2],21.1 nM
same,apparent KD of MS2 coat protein,[3],21.4 nM
"GAUGUACAUGAGGAUCACCCAUGUCAGGAUAUUAGGCGCCCUCAUAGCAGGGCCAUGAUGAGAAGGGACAGUAC [Eternabot (L2) Solution 33] (Eterna round: R97, puzzle: Exclusion 1)",apparent KD of MS2 coat protein,input ligand: FMN 200 uM,67.6 nM
same,apparent KD of MS2 coat protein,input ligand: none,66.4 nM
"GAUGUUCGAGUUAGGAUAUGAAUCCAUACCGGACAUCAGAAGGAACUUGAGGAUCACCCAAGUGGGAAAGAAAU [Orzavera] (Eterna round: R97, puzzle: Brourd's mod of Exclusion 4)",apparent KD of MS2 coat protein,input ligand: FMN 200 uM,26.3 nM
same,apparent KD of MS2 coat protein,input ligand: none,23.5 nM
"GAUUAACAUGAGGAUCACCCAUGUGAGGAUAUGGACUUGCCCACUUACCCAUUAGAGUCUAGAAGGCGCAUCUC [1986#2\9] (Eterna round: R97, puzzle: Exclusion 1)",apparent KD of MS2 coat protein,input ligand: FMN 200 uM,25.7 nM
same,apparent KD of MS2 coat protein,input ligand: none,25.3 nM
"GAUUAACAUGAGGAUCACCCAUGUGAGGAUAUGGACUUGCCCACUUACCCAUUAGAGUCUAGAAGGCGCAUCUG [1986#23] (Eterna round: R97, puzzle: Exclusion 1)",apparent KD of MS2 coat protein,input ligand: FMN 200 uM,48.4 nM
same,apparent KD of MS2 coat protein,input ligand: none,49.8 nM
"GAUUAACAUGAGGAUCACCCAUGUGAGGAUAUGGACUUGCCCACUUUCCCAUUAGAGUCUAGAAGGCGCAUCUG [1986#24] (Eterna round: R97, puzzle: Exclusion 1)",apparent KD of MS2 coat protein,input ligand: FMN 200 uM,37.2 nM
same,apparent KD of MS2 coat protein,input ligand: none,37.9 nM
"GAUUAACAUGAGGAUCACCCAUGUGAGGAUAUGGACUUGCUCACUUUCCGAUUCGAGUCUAGAAGGCGCAUCUU [1986#116] (Eterna round: R97, puzzle: Exclusion 1)",apparent KD of MS2 coat protein,input ligand: FMN 200 uM,30.6 nM
same,apparent KD of MS2 coat protein,input ligand: none,27.1 nM
"GAUUACUGCAAGCUUUGGGACAUGAGGAUCACCCAUGUUCGUCUUAUUGAUCUAGGUACGCUGACGUACCUAGAUCU [JL-sv1-2.28 Brourd mod] (puzzle: Sensor v3, turn-off variant 1)",apparent KD of MS2 coat protein,[1],15.8 nM
same,apparent KD of MS2 coat protein,[2],26 nM
same,apparent KD of MS2 coat protein,[3],14.1 nM
GAUUAGUGAGGAUAUGGUAAAGAUAAGAUGAUGAAAGAACUCCAGAAGGCACAUGAGGAUCACCCAUGUAGUAU [Mat - Exclusion 4 - Mod of JL - D22] (puzzle: Exclusion 4),apparent KD of MS2 coat protein,[2],21.6 nM
"GAUUAUGCGAGCUUUAGGGACAUGAGGAUCACCCAUGUUCGUCUUAUUAAUCUAGGUACGCUAACAUACCUAAAUCU [JMF 39] (puzzle: Sensor v3, turn-off variant 1)",apparent KD of MS2 coat protein,[1],20.3 nM
same,apparent KD of MS2 coat protein,[2],34.3 nM
same,apparent KD of MS2 coat protein,[3],20.6 nM
"GAUUAUGCGAGCUUUAGGGACAUGAGGAUCACCCAUGUUCGUCUUAUUAAUCUGGGUACACUAACAUACCUAAAUCU [JMF 9] (puzzle: Sensor v3, turn-off variant 1)",apparent KD of MS2 coat protein,[1],27.7 nM
same,apparent KD of MS2 coat protein,[2],47.2 nM
same,apparent KD of MS2 coat protein,[3],31.4 nM
"GAUUAUGCGAGCUUUAGGGACAUGAGGAUCACCCAUGUUCGUCUUAUUAAUCUGGGUACACUGACAUACCUAAAUCU [JMF 69] (puzzle: Sensor v3, turn-off variant 1)",apparent KD of MS2 coat protein,[1],32.1 nM
same,apparent KD of MS2 coat protein,[2],48.4 nM
same,apparent KD of MS2 coat protein,[3],33.9 nM
"GAUUAUGCGAGCUUUAGGGACAUGAGGAUCACCCAUGUUCGUCUUAUUAAUCUGGGUGCGCUAACAUACCUAAAUCU [JMF 52] (puzzle: Sensor v3, turn-off variant 1)",apparent KD of MS2 coat protein,[1],56 nM
same,apparent KD of MS2 coat protein,[2],113 nM
same,apparent KD of MS2 coat protein,[3],87.4 nM
"GAUUAUGCGAGCUUUAGGGACAUGAGGAUCACCCAUGUUCGUCUUAUUAGUCUGAAUACACUGACAUACCUAAAUCU [JMF 55] (puzzle: Sensor v3, turn-off variant 1)",apparent KD of MS2 coat protein,[1],14.8 nM
same,apparent KD of MS2 coat protein,[2],19.5 nM
same,apparent KD of MS2 coat protein,[3],17.8 nM
"GAUUAUGCGAGCUUUAGGGACAUGAGGAUCACCCAUGUUCGUCUUAUUAGUCUGAAUGCACUGACAUACCUAAAUCU [JMF 75] (puzzle: Sensor v3, turn-off variant 1)",apparent KD of MS2 coat protein,[1],16.2 nM
same,apparent KD of MS2 coat protein,[2],17.7 nM
same,apparent KD of MS2 coat protein,[3],16.1 nM
"GAUUAUGCGAGCUUUAGGGACAUGAGGAUCACCCAUGUUCGUCUUAUUGAUCUAGAUGCACUAACAUACCUAAAUCU [JMF 25] (puzzle: Sensor v3, turn-off variant 1)",apparent KD of MS2 coat protein,[1],19.7 nM
same,apparent KD of MS2 coat protein,[2],25.1 nM
same,apparent KD of MS2 coat protein,[3],20.1 nM
"GAUUAUGCGAGCUUUAGGGACAUGAGGAUCACCCAUGUUCGUCUUAUUGGUCUAAGUGCACUAACAUACCUAAAUCU [JMF 30] (puzzle: Sensor v3, turn-off variant 1)",apparent KD of MS2 coat protein,[1],21.2 nM
same,apparent KD of MS2 coat protein,[2],38.5 nM
same,apparent KD of MS2 coat protein,[3],20 nM
"GAUUAUGCGAGCUUUAGGGACAUGAGGAUCACCCAUGUUCGUCUUAUUGGUCUGAAUACACUGACAUACCUAAAUCU [JMF 56] (Eterna round: R96, puzzle: Sensor v3, turn-off variant 1)",apparent KD of MS2 coat protein,input ligand: FMN 200 uM,17.1 nM
same,apparent KD of MS2 coat protein,"input ligand: microRNA oligo, concentration not stated",18.3 nM
same,apparent KD of MS2 coat protein,input ligand: none,18.7 nM
"GAUUAUGCGAGCUUUAGGGACAUGAGGAUCACCCAUGUUCGUCUUAUUGGUCUGAAUACACUGACAUACCUAAAUCU [JMF 56] (puzzle: Sensor v3, turn-off variant 1)",apparent KD of MS2 coat protein,[1],16.6 nM
same,apparent KD of MS2 coat protein,[2],21.8 nM
same,apparent KD of MS2 coat protein,[3],15.9 nM
"GAUUAUGCGAGCUUUAGGGACAUGAGGAUCACCCAUGUUCGUCUUAUUGGUCUGAGUACACUGACAUACCUAAAUCU [JMF 63] (puzzle: Sensor v3, turn-off variant 1)",apparent KD of MS2 coat protein,[1],13.3 nM
same,apparent KD of MS2 coat protein,[2],15.9 nM
same,apparent KD of MS2 coat protein,[3],12.8 nM
GAUUGACAUGAGGAUCACCCAUGUGAGGAUAUCGGCCGGACCUUGUUAGCUUCCAUCGUGAGAAGGCACAUAGG [Exclusion 1 V35] (puzzle: Exclusion 1),apparent KD of MS2 coat protein,[2],26.9 nM
"GAUUGAGAAGGAUAUACAUGAGGAUCACCCAUGUGCUUCAGCUAGGAGACUAGCAUUGGUAGAAGGUCUUAAUC [Mod of lroppy 15 - Jieux - Exclusion 3] (Eterna round: R97, puzzle: Exclusion 3)",apparent KD of MS2 coat protein,input ligand: FMN 200 uM,69.7 nM
same,apparent KD of MS2 coat protein,input ligand: none,19.2 nM
"GCAACGAGAGGAUAUGCUUAACGACCGGCGGAAGCGGAUCCACAUGAGGAUCACCCAUGUAGAAGGCUCGGACC [Eternabot (Original) Solution 24] (Eterna round: R97, puzzle: Exclusion 2)",apparent KD of MS2 coat protein,input ligand: FMN 200 uM,35.8 nM
same,apparent KD of MS2 coat protein,input ligand: none,27.4 nM
"GCAAGACAUGAGGAUCACCCAUGUGAGGAUAUUGCUCGACACCUGCGCGAAGAGUCGAUAAGAAGGUACAGGGU [Eternabot (L2) Solution 90] (Eterna round: R97, puzzle: Exclusion 1)",apparent KD of MS2 coat protein,input ligand: FMN 200 uM,69.4 nM
same,apparent KD of MS2 coat protein,input ligand: none,52.6 nM
"GCAAGCGACUAGGCUCGUCUUAUAUUGAAAAGAUUGAAAACAUGAGGAUCACCCAUGUAUGUGGGAAAGUUGAAGUG [JR_SV3TOV2_Sub010] (puzzle: Sensor v3, turn-off variant 2)",apparent KD of MS2 coat protein,[1],393 nM
same,apparent KD of MS2 coat protein,[2],526 nM
same,apparent KD of MS2 coat protein,[3],332 nM
"GCAAGCGAUUAGGCUCGUCUUAUAAAGAAAAGAAUGAAAACAUGAGGAUCACCCAUGUAAGUGGGAAAGUUGAAGUG [JR_SV3TOV2_Sub009] (puzzle: Sensor v3, turn-off variant 2)",apparent KD of MS2 coat protein,[1],267 nM
same,apparent KD of MS2 coat protein,[2],1340 nM
same,apparent KD of MS2 coat protein,[3],210 nM
